The subject of one test is citrate synthase. The test can be described thus: In vitro chaperone assay, thermal aggregation of citrate synthase. The class given is biochemical.
The subject of the next test is βH crystallin. Nature of the test: In vitro chaperone assay, thermal aggregation of βH crystallin. The class given is biochemical.
A further test relates to alcohol dehydrogenase. The test can be described thus: In vitro chaperone assay, thermal aggregation of alcohol dehydrogenase. The class given is biochemical.
For a further test, the system named is pre-formed microtubules. Nature of the test: Microtubule disassembly assay (DAPI fluorescence). The settings on record: for microtubule disassembly relative to wt αB crystallin: mutant αB crystallin, FIG. 4; for effect on microtubule disassembly (words), vs absence of αB crystallin: wt or mutant αB crystallin (6.8 μM and 34 μM), 34 μM microtubules, 23° C., 20 minutes. The class given is biochemical, Bovine. Here is the method:
Microtubule disassembly assays. The effect of αB crystallin peptides and mutants on the in vitro disassembly of microtubules into soluble tubulin was evaluated using the Microtubule Stabilization/Destabilization Assay kit described above (Cytoskeleton; Denver, Colo.) as described previously^36. 34 μM pre-formed microtubules were incubated with the αB crystallin peptides (170 μM) or wt and mutant αB crystallins (6.8 μM and 34 μM) at 23° C. for 20 minutes. Incubation of microtubules at 23° C. results in the spontaneous disassembly of microtubules. The decrease in DAPI fluorescence at λ=460 nm was measured continuously for 20 minutes by exciting the samples at λ=355 nm using a Perkin Elmer Victor^3 V fluorescence plate reader.

Test [1] concerns the target T1, Bovine brain tubulin (Bos taurus, UniProt P81947+Q6B856).
T1 construct: Bovine brain tubulin was dissolved to 200 μM; purchased Cytoskeleton; Denver, Colo; host or cells: bovine brain
The test can be described thus: Microtubule assembly assay (DAPI fluorescence, Microtubule Stabilization/Destabilization Assay kit). Particulars: for microtubule assembly relative to wt αB crystallin: mutant αB crystallin, FIG. 4; for effect on microtubule assembly, vs absence of αB crystallin: wt or mutant αB crystallin protein, tubulin alone normalized to 1.0. Type of test: biochemical. How it is done: Microtubule assembly assays. The effect of selected αB crystallin peptides on the in vitro assembly of tubulin into microtubules was evaluated using the Microtubule Stabilization/Destabilization Assay kit (Cytoskeleton; Denver, Colo.) as described previously. Bonne et al., J Biol Chem 260:2819-25, 1985. Bovine brain tubulin was dissolved to 200 μM in 80 mM PIPES, 2 mM MgCl2, 0.5 mM EGTA, 10 μM DAPI, 1 mM GTP pH 6.9. 8.5 μl of the tubulin was mixed with 40 μl of 80 mM PIPES, 2 mM MgCl2, 0.5 mM EGTA, 7.4 μM DAPI, 16% Glycerol, 1.1 mM GTP pH 6.9 and 4.3 μl of 2 mM peptide in 2.5% DMSO, 2 mM Paclitaxel (polymerization promoter) in 100% DMSO, 15 mM CaCl2 (polymerization inhibitor) in water, or 2.5% DMSO only. Microtubule assembly was monitored by measuring the fluorescence of DAPI, a molecule whose emission fluorescence at λ=460 is enhanced 8-fold when it is incorporated into assembled microtubules. Bonne et al., J Biol Chem 260:2819-25, 1985. Fluorescence of samples were continuously read on a Perkin Elmer Victor^3 V fluorescence plate reader (Excitation λ=355 nm, Emission λ=460 nm) at 37° C. for 45 minutes.
The effect of wt and three mutant αB crystallins, Δ41-58, αAβ8, and Δ155-165 on the in vitro assembly of tubulin into microtubules was evaluated using the Microtubule Stabilization/Destabilization Assay kit described above (Cytoskeleton; Denver, Colo.). Bovine brain tubulin was dissolved to 200 μM in 80 mM PIPES, 2 mM MgCl2, 0.5 mM EGTA, 10 μM DAPI, 1 mM GTP pH 6.9. 8.5 μl of the tubulin was mixed with 40 μl of 80 mM PIPES, 2 mM MgCl2, 0.5 mM EGTA, 7.4 μM DAPI, 16% Glycerol, 1.1 mM GTP pH 6.9 and 4.3 μl of 80 μM protein in 20 mM Tris-Cl, pH8.0 or Tris-Cl buffer only. Fluorescence of samples were continuously read on a Perkin Elmer Victor^3 V fluorescence plate reader (Excitation λ=355 nm, Emission λ=460 nm) at 37° C. for 45 minutes.

Test [2] concerns Bovine brain tubulin. Nature of the test: Tubulin thermal aggregation assay (absorbance at 340 nm). The class given is biochemical. The settings on record: for tubulin aggregation relative to wt αB crystallin: mutant αB crystallin, FIG. 4; for effect on tubulin aggregation, vs absence of αB crystallin: wt or mutant αB crystallin protein, 52° C., 60 minutes. Here is the method: Tubulin aggregation assays. The effect of αB crystallin peptides and mutants on the thermal aggregation of tubulin was evaluated using ultra-violet spectroscopy. Bovine brain tubulin was dissolved to 200 μM in 80 mM PIPES, 2 mM MgCl2, 0.5 mM EGTA, pH 6.9. 4.25 μl of 0.08, 0.4, or 2 mM test peptide or protein was diluted into 40 μl of 80 mM PIPES, 2 mM MgCl2, 0.5 mM EGTA, pH 6.9. 8.5 μl of the 200 μM tubulin was added to each sample. Samples were heated at 52° C. and the absorbance at λ=340 nm was measured continuously for 60 minutes using a Pharmacia Biotech Ultrospec 3000. GTP and glycerol were not present in the samples because they induce the assembly of microtubules.

T1 sequence (P81947 whole entry): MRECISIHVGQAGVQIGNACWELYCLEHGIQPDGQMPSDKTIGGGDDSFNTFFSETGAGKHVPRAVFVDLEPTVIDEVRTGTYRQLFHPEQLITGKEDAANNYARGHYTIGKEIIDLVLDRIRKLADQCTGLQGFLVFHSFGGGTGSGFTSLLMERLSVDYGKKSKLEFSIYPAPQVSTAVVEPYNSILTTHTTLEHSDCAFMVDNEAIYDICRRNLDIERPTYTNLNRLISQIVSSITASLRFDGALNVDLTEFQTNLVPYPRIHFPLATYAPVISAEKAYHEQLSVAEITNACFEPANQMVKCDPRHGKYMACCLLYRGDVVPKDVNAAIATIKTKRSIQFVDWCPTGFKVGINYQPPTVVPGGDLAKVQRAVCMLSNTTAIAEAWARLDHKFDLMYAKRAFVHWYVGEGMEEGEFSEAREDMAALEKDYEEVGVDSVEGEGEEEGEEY
T1 sequence (Q6B856 whole entry): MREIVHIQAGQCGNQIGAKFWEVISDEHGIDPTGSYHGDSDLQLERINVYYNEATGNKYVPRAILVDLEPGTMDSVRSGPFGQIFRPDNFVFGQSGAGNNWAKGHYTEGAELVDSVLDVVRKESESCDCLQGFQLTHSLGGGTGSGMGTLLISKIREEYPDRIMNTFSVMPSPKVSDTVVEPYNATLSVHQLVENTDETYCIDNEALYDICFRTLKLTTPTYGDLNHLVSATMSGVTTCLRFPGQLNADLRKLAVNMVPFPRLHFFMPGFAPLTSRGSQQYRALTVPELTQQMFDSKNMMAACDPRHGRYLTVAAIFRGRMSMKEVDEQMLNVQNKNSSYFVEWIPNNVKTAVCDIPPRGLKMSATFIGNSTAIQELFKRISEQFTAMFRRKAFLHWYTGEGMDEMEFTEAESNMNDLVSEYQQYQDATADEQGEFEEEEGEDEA

In the case of RTIPITRE, the “effect on thermal aggregation of citrate synthase” value in the test on citrate synthase is recorded as “inhibited”. Besides, the “effect on thermal aggregation of βH crystallin” value in the test with βH crystallin is on record as “inhibited”. The “effect on thermal aggregation of alcohol dehydrogenase” value in the test on alcohol dehydrogenase is on record as “inhibited”.
Take LTITSSLSDGV: in the test with citrate synthase, the “effect on thermal aggregation of citrate synthase” value is “inhibited”. Moreover, the “effect on thermal aggregation of βH crystallin” value in the test on βH crystallin is listed as “inhibited”. Also, the “effect on thermal aggregation of alcohol dehydrogenase” value in the test with alcohol dehydrogenase is listed as “inhibited”.

B1: R120G: single point mutant of human αB crystallin, Arg-120 replaced with glycine (protein)
chain: MDIAIHHPWIRRPFFPFHSPSRLFDQFFGEHLLESDLFPTSTSLSPFYLRPPSFLRAPSWFDTGLSEMRLEKDRFSVNLDVKHFSPEELKVKVLGDVIEVHGKHEERQDEHGFISREFHGKYRIPADVDPLTITSSLSSDGVLTVNGPRKQVSGPERTIPITREEKPAVTAAPKK
As to B1, in the test with pre-formed microtubules, the “microtubule disassembly relative to wt αB crystallin” value is “similar” and the “effect on microtubule disassembly (words), vs absence of αB crystallin” value was “unchanged”. In the test with Bovine brain tubulin [1], the “microtubule assembly relative to wt αB crystallin” value is reported as “lower” and the “effect on microtubule assembly, vs absence of αB crystallin” value was “unchanged”. Further, in the test on Bovine brain tubulin [2], the “tubulin aggregation relative to wt αB crystallin” value is “similar” and the “effect on tubulin aggregation, vs absence of αB crystallin” value was “decreased”.

B2: αAβ8: human αB crystallin mutant, β8 sequence 131LTITSSLS138 replaced with homologous β8 sequence of human αA crystallin (protein)
chain: MDIAIHHPWIRRPFFPFHSPSRLFDQFFGEHLLESDLFPTSTSLSPFYLRPPSFLRAPSWFDTGLSEMRLEKDRFSVNLDVKHFSPEELKVKVLGDVIEVHGKHEERQDEHGFISREFHRKYRIPADVDPSALSCSLSSDGVLTVNGPRKQVSGPERTIPITREEKPAVTAAPKK
For B2, in the test on pre-formed microtubules, the “microtubule disassembly relative to wt αB crystallin” value is recorded as “decreased” and the “effect on microtubule disassembly (words), vs absence of αB crystallin” value is given as “completely inhibited”. For the same molecule, in the test with Bovine brain tubulin [1], the “microtubule assembly relative to wt αB crystallin” value is reported as “increased” and the “effect on microtubule assembly, vs absence of αB crystallin” value is given as “increased”. Besides, in the test with Bovine brain tubulin [2], the “tubulin aggregation relative to wt αB crystallin” value was “unchanged” and the “effect on tubulin aggregation, vs absence of αB crystallin” value was “decreased”.

Source of the values: patent US20080280824A1, “COMPOSITIONS AND METHODS FOR TREATMENT OF CANCER OR NEURODEGENERATIVE DISEASE WITH PEPTIDE BASED MICROTUBULE STABILIZERS OR INHIBITORS” (University of Washington, priority 2007, published 2008).
